We go through seven substances from FireProtDB (doi:10.1021/bi00009a035).

Chain of Cytochrome c isoform 1 K79G, P00044 (P00044 whole entry K79G, canonical isoform): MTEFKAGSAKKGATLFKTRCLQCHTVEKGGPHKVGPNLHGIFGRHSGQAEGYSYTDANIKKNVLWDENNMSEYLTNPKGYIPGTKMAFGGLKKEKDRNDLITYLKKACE
Chain of Cytochrome c isoform 1 K79A, P00044 (P00044 whole entry K79A, canonical isoform): as the sequence (P00044 whole entry K79G, canonical isoform) above, with G79A counted along it
Chain of Cytochrome c isoform 1 K79I, P00044 (P00044 whole entry K79I, canonical isoform): as the sequence (P00044 whole entry K79G, canonical isoform) above, with G79I counted along it
Chain of Cytochrome c isoform 1 K79L, P00044 (P00044 whole entry K79L, canonical isoform): as the sequence (P00044 whole entry K79G, canonical isoform) above, with G79L counted along it
Chain of Cytochrome c isoform 1 wild type, P00044 (P00044 whole entry, canonical isoform): as the sequence (P00044 whole entry K79G, canonical isoform) above, with G79K counted along it
Chain of Cytochrome c isoform 1 K79V, P00044 (P00044 whole entry K79V, canonical isoform): as the sequence (P00044 whole entry K79G, canonical isoform) above, with G79V counted along it
Chain of Cytochrome c isoform 1 K79R, P00044 (P00044 whole entry K79R, canonical isoform): as the sequence (P00044 whole entry K79G, canonical isoform) above, with G79R counted along it

For the first series the following is noted: Saccharomyces cerevisiae (strain ATCC 204508 / S288c); pH 7.5; 25 °C; GdnHCl; CD; Tris-HCl 20 mM; NaCl 40 mM; reversible: yes (94-100%).
For the substance “Cytochrome c isoform 1 wild type, P00044”, the denaturant m value was 4.87 kcal/mol/M, the “denaturant midpoint (higher = more stable)” value (“denaturant midpoint” below) came to 1.16 M and the unfolding free energy is 5.66 kcal/mol.

Staying with this series, now noted: Saccharomyces cerevisiae (strain ATCC 204508 / S288c); pH 7.5; 25 °C; GdnHCl; CD; Tris-HCl 20 mM; NaCl 40 mM; reversible: yes (94-100%); structure 1YCC.
Take Cytochrome c isoform 1 K79R, P00044: the “ddG of mutation (higher = less stable)” value amounted to 0.03 kcal/mol, the denaturant m value was found to be 5.25 kcal/mol/M, the “denaturant midpoint” value is 1.07 M and the unfolding free energy came to 5.63 kcal/mol.
In the same order, the values of Cytochrome c isoform 1 K79A, P00044 are 0.45 kcal/mol, 4.44 kcal/mol/M, 1.17 M and 5.21 kcal/mol.
The matching figures for Cytochrome c isoform 1 K79L, P00044: 0.03 kcal/mol, 4.98 kcal/mol/M, 1.13 M and 5.63 kcal/mol.
For Cytochrome c isoform 1 K79I, P00044, the “ddG of mutation (higher = less stable)” value was 1.19 kcal/mol, the denaturant m value amounted to 4.29 kcal/mol/M, the “denaturant midpoint” value was determined as 1.04 M and the unfolding free energy is 4.47 kcal/mol.
Consider Cytochrome c isoform 1 K79G, P00044, for which the “ddG of mutation (higher = less stable)” value was 0.74 kcal/mol, the denaturant m value worked out at 4.58 kcal/mol/M, the “denaturant midpoint” value was 1.07 M and the unfolding free energy came to 4.92 kcal/mol.
As for Cytochrome c isoform 1 K79V, P00044, the “ddG of mutation (higher = less stable)” value was determined as 1.38 kcal/mol, the denaturant m value is 4.01 kcal/mol/M, the “denaturant midpoint” value was 1.07 M and the unfolding free energy was 4.28 kcal/mol.
